According to the supplement of paper PMC10065799, “High-throughput profiling of sequence recognition by tyrosine kinases and SH2 domains using bacterial peptide display” (eLife, 2023):

target: SHP2-C SH2; assay: SH2 binding enrichment of the phosphorylated peptide, bacterial display (enrichment ratio); higher = better substrate or ligand; peptides without Tyr show the background
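Throughout, for SH2 binding enrichment of the phosphorylated peptide, bacterial display: peptide library displayed on the E. coli surface as eCPX fusions, selected cells deep-sequenced, score is each peptide's frequency after selection divided by its frequency in the input.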
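Throughout, for phosphorylation enrichment, bacterial display: 11-residue human phosphosite peptides and single-mutation variants displayed on the E. coli surface, counted by deep sequencing, each peptide's frequency after selection divided by its frequency in the unselected input library; frequency after pTyr selection over input frequency; kinase dosed for 20-30% of maximal phosphorylation in three min.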

Compared with WKKKIYEESST [MOCS2_Y170_E168K], INASGYRVGPA [ACSM1_Y477_I479V] is higher in SH2 binding enrichment: 0.481 for the first, 0.691 for the second.

Going from ALTRSYVREKV [CYP2C8_Y243_I244V] to GEVLVYVEDPA [FLNA_Y319], the SH2 binding enrichment rises from 0.551 to 0.553.

Going from LSAPWYLNRIS [HEXA_Y421] to QELRRYLKSGV [MICA_Y194], the SH2 binding enrichment falls from 1.19 to 0.384.

First: DTFDPYLDVAL [USP36_Y268_YF]
Second: AAYNRYDQERF [CDC73_Y293]
The SH2 binding enrichment of the first is higher: 0.953 for the first, 0.585 for the second.

First: KHTLSYVDVGT [SDHA_Y629]
Second: TDTAAYEERLR [SPTB_Y474_V478L]
The SH2 binding enrichment of the first is higher: 0.967 for the first, 0.924 for the second.

Compared with SMGHRYIEVFK [HNRNPF_Y82], ASQEEYSAMRD [KRAS_Y64_G60S] is lower in SH2 binding enrichment: 0.988 for the first, 0.502 for the second.

Compared with NSNAAYEESHF [LRIF1_Y714_Q716E], EEQFFYEKAIL [BCCIP_Y257_E254Q] is higher in SH2 binding enrichment: 0.608 for the first, 0.795 for the second.

First: EQMLEYMGQLQ [CFAP45_Y289_E291G]
Second: PFRQWYESHFA [RPS8_Y113_YF]
The SH2 binding enrichment of the first is lower: 0.553 for the first, 1.04 for the second.

Compared with AGQEGYDRLRP [RAC1_Y64_D63G], VTAALYGRLFE [BTD_Y536_YF] is higher in SH2 binding enrichment: 0.501 for the first, 1.16 for the second.

Going from GGQVFHNSEYG [FLT4_Y1333_Y1333H] to SMEMKYLEEKN [ZAP70_Y451_G448E], the SH2 binding enrichment rises from 0.655 to 0.786.

First: ITNLLYHVVSW [GBA_Y412_G416S]
Second: SGFESYGSSSS [RPA2_Y9_Y14S]
The SH2 binding enrichment of the first is higher: 1.15 for the first, 0.737 for the second.

First: LGSWTYTKTVS [ROS1_Y144]
Second: CTSIHYNFMCN [TP53_Y234_T231S_YF]
The SH2 binding enrichment of the first is lower: 0.64 for the first, 1.59 for the second.

Compared with LEEFQYIGESQ [MSH2_Y856], MTRDIYETDYY [INSR_Y1185] is lower in SH2 binding enrichment: 0.688 for the first, 0.6 for the second.

First: MANYVYKAGPS [MAML2_Y515_M514V]
Second: FLQTDYTSQVS [FRMPD1_Y846]
The SH2 binding enrichment of the first is higher: 1.09 for the first, 0.873 for the second.

First: HPWPQYTTRAP [FNDC1_Y1281]
Second: MCDSHYLESRF [CLK1_Y56_S61F]
The SH2 binding enrichment of the first is higher: 0.99 for the first, 0.854 for the second.

Compared with FGGLRCGFGVL [KRTAP20-2_Y13_Y13C_YF], NVADHYGVFKP [ATP6V0D2_Y271_YF] is higher in SH2 binding enrichment: 0.609 for the first, 0.96 for the second.

Work on DAVCFYRMENA [NPHS2_Y195_I192V_YF] yielded an SH2 binding enrichment of 0.674.

target: c-Src SH2; assay: as above

Compared with WKKKIYEESST [MOCS2_Y170_E168K], INASGYRVGPA [ACSM1_Y477_I479V] is lower in SH2 binding enrichment: 0.415 for the first, 0.358 for the second.

Compared with ALTRSYVREKV [CYP2C8_Y243_I244V], GEVLVYVEDPA [FLNA_Y319] is lower in SH2 binding enrichment: 0.495 for the first, 0.45 for the second.

Compared with LSAPWYLNRIS [HEXA_Y421], QELRRYLKSGV [MICA_Y194] is lower in SH2 binding enrichment: 0.697 for the first, 0.465 for the second.

Compared with DTFDPYLDVAL [USP36_Y268_YF], AAYNRYDQERF [CDC73_Y293] is higher in SH2 binding enrichment: 0.414 for the first, 0.497 for the second.

Compared with KHTLSYVDVGT [SDHA_Y629], TDTAAYEERLR [SPTB_Y474_V478L] is lower in SH2 binding enrichment: 0.759 for the first, 0.504 for the second.

First: SMGHRYIEVFK [HNRNPF_Y82]
Second: ASQEEYSAMRD [KRAS_Y64_G60S]
The SH2 binding enrichment of the first is higher: 2.08 for the first, 0.77 for the second.

Compared with NSNAAYEESHF [LRIF1_Y714_Q716E], EEQFFYEKAIL [BCCIP_Y257_E254Q] is lower in SH2 binding enrichment: 1.23 for the first, 0.53 for the second.

Going from EQMLEYMGQLQ [CFAP45_Y289_E291G] to PFRQWYESHFA [RPS8_Y113_YF], the SH2 binding enrichment rises from 0.42 to 1.07.

Compared with AGQEGYDRLRP [RAC1_Y64_D63G], VTAALYGRLFE [BTD_Y536_YF] is lower in SH2 binding enrichment: 0.918 for the first, 0.627 for the second.

First: GGQVFHNSEYG [FLT4_Y1333_Y1333H]
Second: SMEMKYLEEKN [ZAP70_Y451_G448E]
The SH2 binding enrichment of the first is lower: 0.474 for the first, 0.549 for the second.

First: ITNLLYHVVSW [GBA_Y412_G416S]
Second: SGFESYGSSSS [RPA2_Y9_Y14S]
The SH2 binding enrichment of the first is higher: 0.944 for the first, 0.425 for the second.

First: LGSWTYTKTVS [ROS1_Y144]
Second: CTSIHYNFMCN [TP53_Y234_T231S_YF]
The SH2 binding enrichment of the first is lower: 0.415 for the first, 2.05 for the second.

Going from LEEFQYIGESQ [MSH2_Y856] to MTRDIYETDYY [INSR_Y1185], the SH2 binding enrichment rises from 0.535 to 0.744.

Going from MANYVYKAGPS [MAML2_Y515_M514V] to FLQTDYTSQVS [FRMPD1_Y846], the SH2 binding enrichment rises from 0.547 to 0.579.

First: HPWPQYTTRAP [FNDC1_Y1281]
Second: MCDSHYLESRF [CLK1_Y56_S61F]
The SH2 binding enrichment of the first is lower: 0.594 for the first, 0.66 for the second.

First: FGGLRCGFGVL [KRTAP20-2_Y13_Y13C_YF]
Second: NVADHYGVFKP [ATP6V0D2_Y271_YF]
The SH2 binding enrichment of the first is lower: 0.469 for the first, 0.717 for the second.

DAVCFYRMENA [NPHS2_Y195_I192V_YF] gave an SH2 binding enrichment of 0.437.

target: Grb2 SH2 (UniProt P62993); assay: as above
Sequence (P62993 whole entry, looked up): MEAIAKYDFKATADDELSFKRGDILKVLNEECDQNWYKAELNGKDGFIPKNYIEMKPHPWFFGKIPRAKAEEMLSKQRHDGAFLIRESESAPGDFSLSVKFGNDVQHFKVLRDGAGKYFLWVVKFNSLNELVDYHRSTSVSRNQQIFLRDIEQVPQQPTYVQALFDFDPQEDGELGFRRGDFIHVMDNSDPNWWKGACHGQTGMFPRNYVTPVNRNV

Going from WKKKIYEESST [MOCS2_Y170_E168K] to INASGYRVGPA [ACSM1_Y477_I479V], the SH2 binding enrichment rises from 0.62 to 0.853.

Compared with ALTRSYVREKV [CYP2C8_Y243_I244V], GEVLVYVEDPA [FLNA_Y319] is lower in SH2 binding enrichment: 0.804 for the first, 0.706 for the second.

Going from LSAPWYLNRIS [HEXA_Y421] to QELRRYLKSGV [MICA_Y194], the SH2 binding enrichment falls from 1.19 to 0.764.

Going from DTFDPYLDVAL [USP36_Y268_YF] to AAYNRYDQERF [CDC73_Y293], the SH2 binding enrichment rises from 0.707 to 0.737.

Going from KHTLSYVDVGT [SDHA_Y629] to TDTAAYEERLR [SPTB_Y474_V478L], the SH2 binding enrichment rises from 0.817 to 0.849.

Going from SMGHRYIEVFK [HNRNPF_Y82] to ASQEEYSAMRD [KRAS_Y64_G60S], the SH2 binding enrichment falls from 1.03 to 0.812.

Going from NSNAAYEESHF [LRIF1_Y714_Q716E] to EEQFFYEKAIL [BCCIP_Y257_E254Q], the SH2 binding enrichment rises from 0.792 to 1.04.

First: EQMLEYMGQLQ [CFAP45_Y289_E291G]
Second: PFRQWYESHFA [RPS8_Y113_YF]
The SH2 binding enrichment of the first is lower: 0.794 for the first, 1.22 for the second.

Compared with AGQEGYDRLRP [RAC1_Y64_D63G], VTAALYGRLFE [BTD_Y536_YF] is higher in SH2 binding enrichment: 0.72 for the first, 1.16 for the second.

Going from GGQVFHNSEYG [FLT4_Y1333_Y1333H] to SMEMKYLEEKN [ZAP70_Y451_G448E], the SH2 binding enrichment rises from 0.665 to 0.906.

Going from ITNLLYHVVSW [GBA_Y412_G416S] to SGFESYGSSSS [RPA2_Y9_Y14S], the SH2 binding enrichment falls from 1.25 to 0.735.

Compared with LGSWTYTKTVS [ROS1_Y144], CTSIHYNFMCN [TP53_Y234_T231S_YF] is higher in SH2 binding enrichment: 0.817 for the first, 1.57 for the second.

Compared with LEEFQYIGESQ [MSH2_Y856], MTRDIYETDYY [INSR_Y1185] is lower in SH2 binding enrichment: 0.842 for the first, 0.716 for the second.

Going from MANYVYKAGPS [MAML2_Y515_M514V] to FLQTDYTSQVS [FRMPD1_Y846], the SH2 binding enrichment rises from 0.755 to 0.791.

Going from HPWPQYTTRAP [FNDC1_Y1281] to MCDSHYLESRF [CLK1_Y56_S61F], the SH2 binding enrichment falls from 1.12 to 0.905.

Compared with FGGLRCGFGVL [KRTAP20-2_Y13_Y13C_YF], NVADHYGVFKP [ATP6V0D2_Y271_YF] is higher in SH2 binding enrichment: 0.69 for the first, 1.06 for the second.

DAVCFYRMENA [NPHS2_Y195_I192V_YF] gave an SH2 binding enrichment of 0.714.

target: Jak2 (UniProt O60674); assay: phosphorylation enrichment, bacterial display (enrichment ratio); higher = better substrate or ligand; peptides without Tyr show the background
Sequence (O60674 whole entry, looked up): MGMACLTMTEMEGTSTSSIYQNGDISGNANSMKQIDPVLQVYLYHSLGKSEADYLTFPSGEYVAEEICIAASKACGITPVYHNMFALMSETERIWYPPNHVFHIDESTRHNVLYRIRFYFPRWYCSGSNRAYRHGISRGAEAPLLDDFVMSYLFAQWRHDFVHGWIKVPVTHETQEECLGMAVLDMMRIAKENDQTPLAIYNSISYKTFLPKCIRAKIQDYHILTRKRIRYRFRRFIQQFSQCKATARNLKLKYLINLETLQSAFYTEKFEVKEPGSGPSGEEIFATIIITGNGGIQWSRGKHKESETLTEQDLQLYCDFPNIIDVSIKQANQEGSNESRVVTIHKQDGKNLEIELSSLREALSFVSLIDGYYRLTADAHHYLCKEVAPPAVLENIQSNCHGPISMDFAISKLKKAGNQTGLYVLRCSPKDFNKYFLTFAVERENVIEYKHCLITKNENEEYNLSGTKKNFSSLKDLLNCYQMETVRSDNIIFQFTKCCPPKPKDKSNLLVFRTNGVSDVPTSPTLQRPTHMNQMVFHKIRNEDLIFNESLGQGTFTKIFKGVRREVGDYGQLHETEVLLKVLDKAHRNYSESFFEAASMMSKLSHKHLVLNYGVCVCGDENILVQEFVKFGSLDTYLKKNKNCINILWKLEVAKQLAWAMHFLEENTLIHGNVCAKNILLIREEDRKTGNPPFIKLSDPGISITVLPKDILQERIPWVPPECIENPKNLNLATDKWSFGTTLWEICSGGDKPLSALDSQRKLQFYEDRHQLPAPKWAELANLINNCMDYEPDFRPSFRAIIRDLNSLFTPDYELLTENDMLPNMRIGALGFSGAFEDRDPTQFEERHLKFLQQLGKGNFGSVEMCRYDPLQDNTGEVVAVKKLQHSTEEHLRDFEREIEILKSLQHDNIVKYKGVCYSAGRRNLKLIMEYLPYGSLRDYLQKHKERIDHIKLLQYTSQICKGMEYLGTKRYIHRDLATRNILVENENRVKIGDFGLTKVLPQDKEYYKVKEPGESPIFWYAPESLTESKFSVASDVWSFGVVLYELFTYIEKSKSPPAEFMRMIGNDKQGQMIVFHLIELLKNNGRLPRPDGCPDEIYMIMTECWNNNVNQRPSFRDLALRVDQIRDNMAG

Compared with WKKKIYEESST [MOCS2_Y170_E168K], INASGYRVGPA [ACSM1_Y477_I479V] is lower in phosphorylation enrichment: 0.794 for the first, 0.523 for the second.

First: ALTRSYVREKV [CYP2C8_Y243_I244V]
Second: GEVLVYVEDPA [FLNA_Y319]
The phosphorylation enrichment of the first is lower: 0.353 for the first, 1.34 for the second.

Compared with LSAPWYLNRIS [HEXA_Y421], QELRRYLKSGV [MICA_Y194] is lower in phosphorylation enrichment: 0.699 for the first, 0.566 for the second.

Compared with DTFDPYLDVAL [USP36_Y268_YF], AAYNRYDQERF [CDC73_Y293] is lower in phosphorylation enrichment: 1.25 for the first, 0.646 for the second.

Compared with KHTLSYVDVGT [SDHA_Y629], TDTAAYEERLR [SPTB_Y474_V478L] is higher in phosphorylation enrichment: 0.552 for the first, 0.742 for the second.

Going from SMGHRYIEVFK [HNRNPF_Y82] to ASQEEYSAMRD [KRAS_Y64_G60S], the phosphorylation enrichment falls from 1.05 to 0.976.

Compared with NSNAAYEESHF [LRIF1_Y714_Q716E], EEQFFYEKAIL [BCCIP_Y257_E254Q] is lower in phosphorylation enrichment: 0.87 for the first, 0.828 for the second.

Compared with EQMLEYMGQLQ [CFAP45_Y289_E291G], PFRQWYESHFA [RPS8_Y113_YF] is higher in phosphorylation enrichment: 0.873 for the first, 0.963 for the second.

Going from AGQEGYDRLRP [RAC1_Y64_D63G] to VTAALYGRLFE [BTD_Y536_YF], the phosphorylation enrichment rises from 0.484 to 0.633.

First: GGQVFHNSEYG [FLT4_Y1333_Y1333H]
Second: SMEMKYLEEKN [ZAP70_Y451_G448E]
The phosphorylation enrichment of the first is lower: 0.67 for the first, 1.22 for the second.

Compared with ITNLLYHVVSW [GBA_Y412_G416S], SGFESYGSSSS [RPA2_Y9_Y14S] is lower in phosphorylation enrichment: 3.17 for the first, 0.555 for the second.

Going from LGSWTYTKTVS [ROS1_Y144] to CTSIHYNFMCN [TP53_Y234_T231S_YF], the phosphorylation enrichment falls from 1.61 to 1.

Compared with LEEFQYIGESQ [MSH2_Y856], MTRDIYETDYY [INSR_Y1185] is lower in phosphorylation enrichment: 2.43 for the first, 1.02 for the second.

First: MANYVYKAGPS [MAML2_Y515_M514V]
Second: FLQTDYTSQVS [FRMPD1_Y846]
The phosphorylation enrichment of the first is lower: 0.452 for the first, 0.732 for the second.

First: HPWPQYTTRAP [FNDC1_Y1281]
Second: MCDSHYLESRF [CLK1_Y56_S61F]
The phosphorylation enrichment of the first is higher: 0.846 for the first, 0.793 for the second.

First: FGGLRCGFGVL [KRTAP20-2_Y13_Y13C_YF]
Second: NVADHYGVFKP [ATP6V0D2_Y271_YF]
The phosphorylation enrichment of the first is higher: 0.901 for the first, 0.404 for the second.

Sequence DAVCFYRMENA [NPHS2_Y195_I192V_YF] has a phosphorylation enrichment of 1.22.
